Laboratory results published in JP2006342173A.

Tests used:
[1] = target: ヒトCD40ヒトFC (human CD40 extracellular region fused to human IgG1 FC) (human) (UniProt P25942); test: SPR, BIAcore 2000; CD40 human FC immobilised on CM5; control IgG added first, then soluble CD40L 10 ug/ml; difference before and after CD40L
[2] = target: ヒトCD40 (human CD40 expressed on cells) (human) (UniProt P25942); test: cell-based or functional assay

Substance: 可溶性CD40リガンド (soluble CD40 ligand, FLAG-tagged, ALEXIS CORPORATION) (from UniProt P29965 116-261)
- CD40Lの結合量 (RU) [1]: 100 RU

Substance: 5D12抗体 (mouse anti-human CD40 antibody, ATCC No.HB-11339)
- 扁桃腺B細胞の増殖抑制 ([3H]チミジン; flag標識CD40L+エンハンサー抗体刺激) [2]: 50%
